According to patent US9073976B2, “ND2 peptides and methods of treating neurological disease” (NoNO Inc., priority 2010, dated 2015):

Legend:
[1] = test system: association of Src and ND2; conditions: Liu et al. 2008; cited from earlier work
NMDA currents = conditions: Liu et al. 2008; cited from earlier work
[2] = target: T1, NMDAR signaling complex in cultured hippocampal neurons (Rattus norvegicus, UniProt P11662+Q9WUD9); test: Co-immunoprecipitation from cultured hippocampal neurons; type: cell-based; conditions: IP anti-NR2B; 1 uM for 1 hour or 3 uM for 2 hours
T1 construct: endogenous in cells; host or cells: primary hippocampal neurons from E17/E18 Wistar rats, 14 DIV
Procedure: We next examined the effect of Tat-ND2 310-321 and Src40-49-Tat on the association of proteins in the NMDAR signaling complex in cultured hippocampal neurons at 14DIV. Neurons were treated with Tat-ND2 310-321 or Src40-49 at 1 uM for 1 hour (FIG. 13A) or at 3 uM for 2 hours (FIG. 13B). Cell lysates were purified and immunoprecipitated with anti-NR2B (left) and then stained with anti NR2B, anti-PSD95, anti-Src and anti-ND2 antibodies.
NMDAR and its associated proteins were prepared from cultured hippocampal (HP) neurons or rat brains. For in vitro competition experiments, two week HP neurons were collected after treatment with Src 40-49-Tat, Tat-ND2 310-321 or Tat peptides for 1 h at luM concentration or for 2 hours at 3 uM concentration then cells were quickly harvested and homogenized.
Lysates were incubated with Dynabeads protein G (Invitrogen) and selected antibodies for 30 minutes at room temperature. Isolated immunoprecipitates were resolved using SDS-PAGE and transferred to nitrocellulose membranes. The membranes were probed with selected detection antibodies, then stripped and reprobed with other detection antibodies.

rats subjected to 3PVO = test: Three pial vessel occlusion (3PVO) model of stroke, infarct volume; type: in vivo, rat; conditions: 3 nmol/g intravenous one hour post-surgery; 24 hours after surgery; n=10
Procedure: The efficacy of ND2 inhibitors in the treatment of stroke was examined using the three pial vessel occlusion (3PVO) model of stroke. This is a permanent model of stroke that creates small but consistent infarcts at 24 hours.
Male Sprague Dawley rats (n=10 in each group) were surgically subjected to permanent occlusion of the pial vessels. One hour post-surgery, animals were given an intravenous injection of Saline, Tat-NR2B9c (Aarts et al, Science, 2002), Src 40-49-Tat or Tat-ND2 310-321 and allowed to further recover in their cages. 24 hours after surgery, brains were harvested, sliced and incubated with TTC to visualize the areas of infarction. The infarct volume of each animal was determined, as well as the average volumes for each group of ten.
Both peptides were myristoylated via an amide bond to the alpha-amino group of the N-terminal amino acid of the peptide.
Male Sprague Dawley rats (n=10 in each group) weighing between 230 and 290 g were used for this study. Experiments were performed on fasted rats (Free overnight access to water but not food). For permanent three pial vessel occlusion (3PVO) was performed as described previously (Forder J et al., 2005, supra). In brief, rats were anesthetized with a 0.5 ml/kg intramuscular injection of ketamine (100 mg/kg), acepromazine (2 mg/kg), and xylazine (5 mg/kg), supplemented with one-third of the initial dose as required. An anal temperature probe was inserted, and the animal was placed on a heating pad maintained at 37° C. The skull was exposed via a midline incision and scraped free of tissue. Using a dissecting microscope and a pneumatic dental drill, a 6- to 8-mm cranial window was made over the right somatosensory cortex (2 mm caudal and 5 mm lateral to bregma) by drilling a rectangle through the skull and lifting off the piece of skull while keeping the dura intact. The 3 pial arteriolar middle cerebral artery branches around the barrel cortex were selected and electrically cauterized through the dura. After the cauterizations, the scalp was sutured. […]

[3] = test system: Formalin, CFA and peripheral nerve constriction pain models; conditions: Liu et al. 2008; cited from earlier work
ND2 310-321 = target: T2, ND2 310-321 (Homo sapiens, UniProt P03891); test: Dot blot of Src fragments probed with biotinylated ND2 310-321; type: binding; conditions: FIG. 5A
T2 construct: 7; NVKMKWQFEHTK
Procedure: Src40-49-Tat indicate a fusion peptide in which the human HIV-1 tat protein transduction domain [[…]] […] (SEQ ID NO:10). […] The peptides were plated at a concentration of ˜5 uM.

[4] = target: T3, ND2, Src, NMDAR subunits, and PSD95 in hippocampal neurons (Rattus norvegicus, UniProt P11662+Q9WUD9); test: Immunocytochemistry colocalization in 14DIV hippocampal neurons; type: cell-based; conditions: 1 uM peptide for 1 h, day 14 neurons
T3 construct: endogenous in cells; host or cells: primary hippocampal neurons from E17/E18 Wistar rats, 14 DIV
Procedure: A series of experiments was performed to examine the localization of ND2, Src, NMDAR subunits, and PSD95 in hippocampal neurons by immunocytochemistry in the presence of Tat, Tat-ND2 310-321, or Src 40-49-Tat. Briefly, hippocampal neurons were isolated from embryonic day #17/E18 Wistar rats, and cultured in neurobasal media containing coverslips with B27 and glutamax. Cells were then treated for 1 hr with luM peptide before fixing by standard methods. Proteins were visualized using specific antibodies and secondary antibodies coupled to fluorescent molecules. Colocalization of fluorescence was calculated by merging the images in Photoshop and calculating the % colocalized between pairs as the total colocalized fluorescence clusters divided by the total number of clusters (e.g., % colocalized ND2 with Src=(total colocalized)/(total ND2 clusters); % colocalized Src with ND2=(total colocalized)/(total Src clusters)).
Hippocampal neurons cultured on coverslips were treated with 1 uM of Src 40-49-Tat, Tat-ND2 310-321 or Tat for 1 h at the day 14. Then neurons were incubated in 4% paraformaldehyde and 4% sucrose in phosphate-buffered saline (PBS) for 10 minutes followed by 5 minutes […] at room temperature (RT). Cells were permeabilized with 0.25% Triton X-100 in PBS for 5 minutes and by treatment with 5% donkey serum in PBS for 30 minutes at RT. The cultures were incubated with a mixture of the primary antibodies, raised in various species, in 0.25% Triton X-100 PBS for 2 hours at RT, washed, and incubated for 1 hour at RT with a mixture of species-specific secondary antibodies all raised in donkey and conjugated to either Texas Red, or FITC fluorophores (1:200 dilution in 0.25% Triton X-100 PBS). The coverslips were washed with PBS and mounted using ProLong Gold antifade reagent (Invitrogen). Images were collected using a 60× pan-fluor objective on a Nikon Eclipse TE 200 microscope. The images were analyzed with PhotoShop 7 (Adobe, San Jose, Calif.). Brightness and contrast were adjusted, sharpened using the unsharpen mask tool, and the images were merged for color colocalization.
For quantification of the colocalization, the maximum intensities of the fluorophore channels were normalized and the background fluorescence of each channel seen in the dendrites was subtracted, the color images were merged. Two clusters in two different channels were considered colocalizing when at least 66% of the surface of one clusters in one of the two channels overlapped with a clusters in the other channel. For each combination of antibodies, three independent immunofluorescence experiments were done. Each measurement was taken from a 50-m-long dendritic segment (with an average width of 2 m). Colocalization was expressed as the percent of the total clusters analyzed.

[5] = target: T4, NMDA Receptor complex in rat brains subjected to 3PVO (Rattus norvegicus, UniProt P11662+Q9WUD9); test: Co-immunoprecipitation from rat brains subjected to 3PVO stroke; type: in vivo; conditions: injection 1 hour post-surgery, harvest 2 hours post-surgery; compared with Tat-ND2 310-321
T4 construct: from tissue; host or cells: rat brain cortex (ipsilateral and contralateral hemispheres) after 3PVO ischemia
Procedure: The status of these proteins was next examined in rat brains that had been subjected to a 3PVO stroke. After 3PVO ischemia, rodents were given either Tat-ND2 310-321 or saline via tail vein injection. At one hour post-surgery, the brains were quickly harvested and lysed. Following IP with anti NR2B antibodies, the membranes were incubated with anti phosphotyrosine antibodies, developed, and subsequently probed with anti Src, phosphorylated Src (pTys) and anti PSD95 antibodies. As an internal control, both the ipsilateral and contralateral hemispheres (I and C, respectively) were prepared.
A second set of experiments was performed on animals subjected to 3PVO, modified such that the saline, Src 40-49-Tat or Tat-ND2 310-321 was administered by tail vein injection 1 hour post-surgery and the brains were harvested and lysed 2 hours post-surgery.
For in vivo experiments, one hour after 3PVO ischemia, rats were injected with indicated peptides or saline by intravenous tail vein. Two hours after surgery (one hour after administration of compounds), the selected cortex of the brain was quickly harvested and homogenized.
Lysates were incubated with Dynabeads protein G (Invitrogen) and selected antibodies for 30 minutes at room temperature. Isolated immunoprecipitates were resolved using SDS-PAGE and transferred to nitrocellulose membranes. […]

[6] = target: T5, binding of biotinylated Src40-49 to Tat-ND2 310-321 (Homo sapiens, UniProt P03891); test: Competition ELISA, binding of biotinylated Src40-49 to pre-coated Tat-ND2 310-321; conditions: FIG. 5E
T5 construct: 10; Tat-ND2 310-321; […]
Procedure: Competition ELISAs were also performed. […] In a similar manner, ND2 constructs bearing amino acid sequences from the 300-321 region are able to act as inhibitors of the interaction between ND2 and Src.

T5 sequence (P03891 other isoform, or with tags, fused parts or gaps): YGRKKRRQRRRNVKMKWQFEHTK

## KPASADGHRGYGRKKRRQRRR [Src 40-49-Tat]
[1]
  association of Src and ND2 in neuronal lysates: disrupt the association of Src and ND2 in neuronal lysates
NMDA currents
  NMDA currents: reduced NMDA currents
[2]
  association of NR2B with Src: reduces the association of NR2B with Src
Rats subjected to 3PVO
  reducing infarct volumes (statistical effect): not statistically effective
[3]
  effect on inflammatory and neuropathic pain: beneficial effect
ND2 310-321
  binding of biotinylated ND2 310-321 (dot blot): bound ND2 310-321
[4]
  association (colocalization) between ND2 and NR2B: do not significantly affect
  colocalization between PSD95 and NR2B: similarly disrupted
  colocalization of ND2 with PSD95: reduces the colocalization of ND2 with PSD95
  colocalization of Src and ND2: able to reduce the amount of colocalization of Src and ND2
[4]; FIG. 10
  colocalization between NR2B and Src: able to reduce the colocalization
[4]; FIG. 11
  colocalization between PSD95 and Src: able to reduce the colocalization
[5]
  uncoupling PSD95 and Src from the NMDA Receptor: not nearly as effective
[6]
  inhibition of binding of biotinylated Src40-49 to Tat-ND2 310-321 (competition ELISA): inhibited
